In EP4578463A1, “ENDO-180 TARGETED ANTIBODY-DRUG CONJUGATES” (Oncomatryx Biopharma, S.L., priority 2023, dated 2025):

What was measured:
[1] = molecular target: T1, human Endo180-moFc domain I (aa 31-173) (human, UniProt Q9UBG0 31-173); assay: ELISA, immobilized human Endo180-moFc domains
T1 construct: also called huEndo180-moFc DI; not shown: murine Fc domain
T1 sequence: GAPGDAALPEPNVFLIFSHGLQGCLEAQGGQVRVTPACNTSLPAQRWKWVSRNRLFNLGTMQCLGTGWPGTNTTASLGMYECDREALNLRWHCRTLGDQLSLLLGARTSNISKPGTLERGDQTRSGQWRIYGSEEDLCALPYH

[2] = molecular target: T2, human Endo180-moFc domains I-II (aa 31-232) (human, UniProt Q9UBG0 31-232); assay: ELISA, immobilized human Endo180-moFc domains
T2 construct: also called huEndo180-moFc DI-II; not shown: murine Fc domain
T2 sequence: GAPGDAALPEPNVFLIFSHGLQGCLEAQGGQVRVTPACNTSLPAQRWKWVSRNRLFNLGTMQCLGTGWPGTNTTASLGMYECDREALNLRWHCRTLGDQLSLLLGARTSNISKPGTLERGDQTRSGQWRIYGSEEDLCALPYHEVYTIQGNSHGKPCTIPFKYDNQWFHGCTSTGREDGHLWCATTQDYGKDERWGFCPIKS

[3] = molecular target: T3, Endo180 on cells (Endo180-expressing HT1080-WT cells; Endo180-transfected HEK293-Endo180 cells) (UniProt Q9UBG0 31-1479); assay: flow cytometry on HEK293-Endo180 cells
T3 construct: whole, on cells; One molecule is used for the endogenous protein on HT1080-WT and the transfected protein on HEK293-Endo180; also called uPARAP
T3 sequence (looked up): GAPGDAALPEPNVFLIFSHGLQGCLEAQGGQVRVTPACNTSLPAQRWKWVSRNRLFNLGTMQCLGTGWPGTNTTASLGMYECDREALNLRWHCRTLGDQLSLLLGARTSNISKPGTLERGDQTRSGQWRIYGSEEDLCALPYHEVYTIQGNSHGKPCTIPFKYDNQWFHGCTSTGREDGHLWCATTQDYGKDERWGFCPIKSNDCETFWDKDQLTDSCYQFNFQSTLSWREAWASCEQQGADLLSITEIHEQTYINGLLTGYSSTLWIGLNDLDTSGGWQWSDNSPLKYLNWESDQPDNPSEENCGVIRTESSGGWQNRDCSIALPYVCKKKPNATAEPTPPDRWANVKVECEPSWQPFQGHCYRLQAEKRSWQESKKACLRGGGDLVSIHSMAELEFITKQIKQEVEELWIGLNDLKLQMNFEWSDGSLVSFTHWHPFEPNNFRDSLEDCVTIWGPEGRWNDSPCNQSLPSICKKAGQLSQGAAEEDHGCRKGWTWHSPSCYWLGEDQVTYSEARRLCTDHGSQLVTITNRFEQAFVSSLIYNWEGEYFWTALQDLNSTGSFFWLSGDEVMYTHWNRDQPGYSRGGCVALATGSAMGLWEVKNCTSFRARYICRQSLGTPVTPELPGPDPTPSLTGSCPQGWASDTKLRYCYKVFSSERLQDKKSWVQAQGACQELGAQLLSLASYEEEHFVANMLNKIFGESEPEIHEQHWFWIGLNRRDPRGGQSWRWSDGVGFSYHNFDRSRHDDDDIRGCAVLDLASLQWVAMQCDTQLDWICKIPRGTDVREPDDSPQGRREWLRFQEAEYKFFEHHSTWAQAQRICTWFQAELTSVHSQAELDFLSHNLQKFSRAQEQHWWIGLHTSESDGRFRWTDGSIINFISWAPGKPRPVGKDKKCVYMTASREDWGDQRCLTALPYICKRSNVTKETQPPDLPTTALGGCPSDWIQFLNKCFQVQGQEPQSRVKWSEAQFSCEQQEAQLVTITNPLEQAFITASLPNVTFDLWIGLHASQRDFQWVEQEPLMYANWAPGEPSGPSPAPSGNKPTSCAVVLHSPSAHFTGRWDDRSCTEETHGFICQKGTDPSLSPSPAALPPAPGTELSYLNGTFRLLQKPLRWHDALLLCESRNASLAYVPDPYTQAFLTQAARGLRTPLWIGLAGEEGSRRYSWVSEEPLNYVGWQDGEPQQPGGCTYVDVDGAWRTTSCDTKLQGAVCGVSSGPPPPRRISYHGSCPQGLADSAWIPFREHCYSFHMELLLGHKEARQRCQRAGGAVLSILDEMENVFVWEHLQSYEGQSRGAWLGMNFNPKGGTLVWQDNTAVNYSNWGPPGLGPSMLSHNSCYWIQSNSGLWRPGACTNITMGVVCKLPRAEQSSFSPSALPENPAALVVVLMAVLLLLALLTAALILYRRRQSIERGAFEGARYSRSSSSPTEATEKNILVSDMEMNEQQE

- EC50 [3]: 1.5 nM
B1: Human IgG1 G7V with a wildtype γ1 heavy chain (antibody, V domains shown)
VH: EVQLVESGGGLVKPGGSLRLSCAASGFTFSSYSMNWVRQAPGKGLEWVANIKPDGSERHSVDSVKGRFTISRDNSKNSLYLQMNSLRAEDTAVYYCARPGAGRLDYWGQGTLVTVSS
VL: SSELTQDPAVSVALGQTVRITCQGDSLRSYYASWYQQKPGQAPVLVVYGKNNRPSGIPDRFSGSSSGNTASLTITGAQAEDEADYYCNSRDSSGNPWAFGGGTKVTVLG
notes: Naked antibody, made in HEK293-6E (lab scale) or CHO (1 L scale); also called IgG G7V; OMTX007-G7V
- binding result [1]: no binding (tested: titrated from 0.1 pM to 100 nM)
- binding result [2]: no binding (tested: titrated from 0.1 pM to 100 nM)
